# T1: HHV-6B Large structural phosphoprotein (U11) peptide on HLA-DRA*01:01 / HLA-DRB1*03:01 (human)
# T1 peptide: SLPSISIDTKRPSADL
# T2: HHV-6B Putative OX-2 membrane glycoprotein homolog (U85) peptide on HLA-DRA*01:01 / HLA-DRB1*03:01 (human)
# T2 peptide: KINNLDVDSKLYFHIKH
# B1: U11.1 (TCR)
# alpha TRAV12-1 TRAJ49 CDR3: CVVNIFTGNQFYF
# beta TRBV19 TRBJ1-4 CDR3: CASSFRGGEKLFF
# B2: U85.1 (TCR)
# alpha TRAV13-1 TRAJ29 CDR3: CAASNSGNTPLVF
# beta TRBV20-1 TRBJ1-6 CDR3: CGNRVGNSPLHF
# B3: U85.2 (TCR)
# alpha TRAV13-1 TRAJ29 CDR3: CAATNSGNTPLVF
# beta TRBV20-1 TRBJ1-5 CDR3: CSARRGGGPQHF
# Assays:
# [1] = biological target: T1, HHV-6B Large structural phosphoprotein …; test: multimer staining
# [2] = biological target: T2, HHV-6B Putative OX-2 membrane …; test: multimer staining
binder,measurement,setting,value
B1,binding result,[1],recognises
B2,binding result,[2],recognises
B3,binding result,[2],recognises
